From patent publication US20250163127A1
Substitutions are numbered along the chain they refer to. Numbers in names are those of the source.

B1: ICOSL ECD-Fc N84Q/N119Q/N207Q (Fc fusion)
chain: DTQEKEVRAMVGSDVELSCACPEGSRFDLNDVYVYWQTSESKTVVTYHIPQNSSLENVDSRYRNRALMSPAGMLRGDFSLRLFQVTPQDEQKFHCLVLSQSLGFQEVLSVEVTLHVAAQFSVPVVSAPHSPSQDELTFTCTSINGYPRPNVYWINKTDNSLLDQALQNDTVFLNMRGLYDVVSVLRIARTPSVNIGCCIENVLLQQQLTVGSQTGNDIGERDKITENPVSTGEKNAAT
B2: ICOSL-Fc N52A/N57Y/Q100A (Fc fusion)
chain: B1 chain with N52A, N57Y, Q84N, Q100A, Q119N, Q207N
B3: ICOSL-Fc N52Q/N57F (Fc fusion)
chain: B1 chain with N52Q, N57F, Q84N, Q119N, Q207N
B4: ICOSL-Fc N52A/N57F/Q100S (Fc fusion)
chain: B1 chain with N52A, N57F, Q84N, Q100S, Q119N, Q207N
B5: ICOSL-Fc N52Q/N57S/Q100A (Fc fusion)
chain: B1 chain with N52Q, N57S, Q84N, Q100A, Q119N, Q207N
B6: ICOSL-Fc N52M/N57H/Q100S (Fc fusion)
chain: B1 chain with N52M, N57H, Q84N, Q100S, Q119N, Q207N
B7: ICOSL-Fc N52M/N57W/Q100P (Fc fusion)
chain: B1 chain with N52M, N57W, Q84N, Q100P, Q119N, Q207N
B8: ICOSL-Fc N52S/N57H/Q100E (Fc fusion)
chain: B1 chain with N52S, N57H, Q84N, Q100E, Q119N, Q207N
B9: ICOSL-Fc N52R/N57Y/Q100S (Fc fusion)
chain: B1 chain with N52R, N57Y, Q84N, Q100S, Q119N, Q207N
B10: ICOSL-Fc N52A/N57H/Q100S (Fc fusion)
chain: B1 chain with N52A, N57H, Q84N, Q100S, Q119N, Q207N
B11: ICOSL-Fc N52S/N57L/Q100S (Fc fusion)
chain: B1 chain with N52S, N57L, Q84N, Q100S, Q119N, Q207N
B12: ICOSL-Fc N52R/N57L/Q100A (Fc fusion)
chain: B1 chain with N52R, N57L, Q84N, Q100A, Q119N, Q207N

substrate: ICOS (Homo sapiens (Human)) (UniProt Q9Y6W8); test: flow cytometry, transfected cells
Sequence (Q9Y6W8 21-199 limits assumed): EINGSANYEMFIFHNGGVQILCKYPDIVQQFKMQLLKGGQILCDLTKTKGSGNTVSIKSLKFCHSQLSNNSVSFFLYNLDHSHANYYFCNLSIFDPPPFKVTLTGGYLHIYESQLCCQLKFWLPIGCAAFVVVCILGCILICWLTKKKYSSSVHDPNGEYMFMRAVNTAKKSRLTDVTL

MFI	MFI parental ratio	MFI ratio to WT (ΔWT)	Binder
21400 MFI	0.58 fold		B1
261000 MFI		1.23 fold	B2
192000 MFI		0.91 fold	B3
242000 MFI		1.14 fold	B4
263000 MFI		1.24 fold	B5
266000 MFI		1.25 fold	B6
322000 MFI		1.52 fold	B7
258000 MFI		1.22 fold	B8
229000 MFI		1.08 fold	B9
305000 MFI		1.44 fold	B10
269000 MFI		1.27 fold	B11
308000 MFI		1.45 fold	B12

target: CD28 (human) (UniProt P10747); test: flow cytometry, transfected cells

MFI	MFI parental ratio	MFI ratio to WT (ΔWT)	Binder
569 MFI	0.38 fold		B1
147000 MFI		6.6 fold	B2
131000 MFI		5.9 fold	B3
157000 MFI		7 fold	B4
91300 MFI		4.1 fold	B5
115000 MFI		5.1 fold	B6
168000 MFI		7.5 fold	B7
117000 MFI		5.2 fold	B8
133000 MFI		6 fold	B9
159000 MFI		7.1 fold	B10
108000 MFI		4.8 fold	B11
119000 MFI		5.3 fold	B12

target: CTLA-4 (Homo sapiens (Human)) (UniProt P16410); test: flow cytometry, transfected cells
Sequence (P16410 36-223): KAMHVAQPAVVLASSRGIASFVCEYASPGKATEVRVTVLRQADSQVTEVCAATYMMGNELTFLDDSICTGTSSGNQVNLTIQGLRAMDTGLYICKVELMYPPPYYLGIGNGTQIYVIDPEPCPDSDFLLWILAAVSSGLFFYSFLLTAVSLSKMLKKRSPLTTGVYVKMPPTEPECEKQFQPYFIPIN

MFI	MFI parental ratio	MFI ratio to WT (ΔWT)	Binder
640 MFI	0.17 fold		B1
320000 MFI		0.97 fold	B2
367000 MFI		1.11 fold	B3
255000 MFI		0.77 fold	B4
315000 MFI		0.95 fold	B5
463000 MFI		1.4 fold	B6
343000 MFI		1.04 fold	B7
302000 MFI		0.92 fold	B8
504000 MFI		1.53 fold	B9
321000 MFI		0.97 fold	B10
197000 MFI		0.6 fold	B11
403000 MFI		1.22 fold	B12
